Test results taken from patent US20240158509A1 (MOMENTA PHARMACEUTICALS, published 2024).

How the values were obtained:
[1] = biological target: T1, endogenous cynomolgus monkey FcRn in monocytes (cynomolgus monkey, UniProt Q8SPV9 24-365; Q8SPW0 21-119); assay: target occupancy in vivo: monocytes from lysed whole blood of cynomolgus monkeys after one i.v. dose, fixed and permeabilized, unoccupied FcRn stained with Dy650-labeled N027, FACS
T1 construct: whole, on cells; Target occupancy was measured ex vivo by FACS on fixed and permeabilized monocytes
T1 sequence (Q8SPV9 24-365, chain 1 of 2): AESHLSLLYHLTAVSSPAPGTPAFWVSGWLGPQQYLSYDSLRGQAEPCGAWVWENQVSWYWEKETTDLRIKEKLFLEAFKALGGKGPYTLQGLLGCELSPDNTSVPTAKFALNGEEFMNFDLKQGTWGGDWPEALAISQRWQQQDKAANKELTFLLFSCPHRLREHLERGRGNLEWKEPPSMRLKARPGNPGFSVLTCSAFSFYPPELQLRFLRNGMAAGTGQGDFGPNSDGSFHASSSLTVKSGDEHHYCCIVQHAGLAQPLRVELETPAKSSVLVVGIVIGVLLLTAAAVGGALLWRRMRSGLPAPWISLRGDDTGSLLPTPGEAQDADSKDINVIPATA
T1 sequence (Q8SPW0 21-119, chain 2 of 2): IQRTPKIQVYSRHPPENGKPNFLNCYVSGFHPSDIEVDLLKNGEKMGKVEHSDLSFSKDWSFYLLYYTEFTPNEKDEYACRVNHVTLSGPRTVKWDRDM

[2] = biological target: endogenously expressed human FcRn (human, UniProt P55899 24-365; P61769 21-119); assay: cell-based or functional assay
Chain of endogenously expressed human FcRn (P55899 24-365, chain 1 of 2): as the sequence (Q8SPV9 24-365, chain 1 of 2) above, with D39N, Q44E, S99G, G189S, N190S, M217L, T269S, S319V, S332L, I335V counted along it
Chain of endogenously expressed human FcRn (P61769 21-119, chain 2 of 2): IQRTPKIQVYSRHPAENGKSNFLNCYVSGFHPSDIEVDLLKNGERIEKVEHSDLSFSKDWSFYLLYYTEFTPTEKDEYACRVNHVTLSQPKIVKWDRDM

B1: N027 (antibody, human IgG1, lambda, N297A)
heavy: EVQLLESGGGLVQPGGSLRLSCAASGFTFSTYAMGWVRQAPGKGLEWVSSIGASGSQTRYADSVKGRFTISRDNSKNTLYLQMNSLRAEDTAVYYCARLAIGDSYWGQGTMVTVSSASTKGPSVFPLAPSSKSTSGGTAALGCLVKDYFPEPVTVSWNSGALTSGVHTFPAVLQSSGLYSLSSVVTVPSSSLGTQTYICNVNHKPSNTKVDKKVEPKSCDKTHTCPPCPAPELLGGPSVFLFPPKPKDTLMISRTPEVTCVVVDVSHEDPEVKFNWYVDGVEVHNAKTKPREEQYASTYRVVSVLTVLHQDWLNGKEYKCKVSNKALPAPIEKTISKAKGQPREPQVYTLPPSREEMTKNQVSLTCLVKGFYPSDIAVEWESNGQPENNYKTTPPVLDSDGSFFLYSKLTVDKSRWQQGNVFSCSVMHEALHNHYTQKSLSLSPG
light: QSALTQPASVSGSPGQSITISCTGTGSDVGSYNLVSWYQQHPGKAPKLMIYGDSERPSGVSNRFSGSKSGNTASLTISGLQAEDEADYYCSSYAGSGIYVFGTGTKVTVLGQPKAAPSVTLFPPSSEELQANKATLVCLISDFYPGAVTVAWKADSSPVKAGVETTTPSKQSNNKYAASSYLSLTPEQWKSHKSYSCQVTHEGSTVEKTVAPTECS
notes: Full-length IgG; In the occupancy assays unlabeled N027 was followed by dye-labeled N027 (Dy650, VivoTag645); DyLight594-N027 was used for imaging; also called M281; anti-FcRn antibody N027
[1]
  binding result: binds
[2]
  intracellular IgG accumulation (VivoTag645-IgG, gMFI), ~IC50, HAECs: ~0.12 µg/mL
  intracellular IgG accumulation (VivoTag645-IgG, gMFI), ~IC50, HUVECs: ~0.15 µg/mL
  intracellular IgG accumulation (VivoTag645-IgG, gMFI), ~IC50, HVTs: ~0.07 µg/mL
